# Experiment: soluble on expression in E. coli; label from the status in PepcDB or PDB records
row,Sequence,soluble on expression in E. coli
1,MGSDKIHHHHHHMTYDFLIIGGGIAGTSAGAALSRLGTTCLLEAESALAYHASGRSAALFEPNYGHPVTVDLSHASATALRTLGGGVLSPRGLLILAGPGEDAALARDIKTMDLAEISIADAQDMIPILNADHITRAAHHAAAWDIDTDRMVQHYARQIRTNGAVETGATVLGLTKTPQGWTVETRDHSFHARIIVNAAGAWADDIARMAGIAPIGLTPKRRSMARMPAPRGHDVSAWPMIIGAGESWYAKPDAGAWLVSPAEEDPAAPHDAYADDMVLAEGIARYQPFVTEEVTRVTSSWAGLRTFAPDRCLVIGPDRTDPSVLWFAGQGGYGFQTAPAASQLLADLVSGAPSTLDPATVKALSPSRF,not soluble
2,MGSDKIHHHHHHMVATENRMLMEIAAEISAREATLGFQEVKTKSRSAGLTAAFDIASVFFSSGCNVVVAFDRFASNWSDHSDHVDYAAQVAGFGASMLAYTVRRGQFDTAVRDIRDIKSEVDIPILLHDPIIDPYQIHEARVMGIDALQFPVWAMEQARLESLVDRTESLGMTAIVSVRNHEEAHRAVDAGATVVAIDITGYTGSLTLPEAFSGITQFMPKEVARIVLGGCSSPKELMRFARHSADAIFVPHADLATTKSLVTAGMHPACPSR,not soluble
3,MGSDKIHHHHHHMVDGMKHLILKVTNRCNLNCIYCYANNKNNKDMDFKTAKNAIDYLLNLDNQIKIQFTGGEPLLNFNLIEKIVDYCNDNYSNCNIQYAIQTNATLINEKIAEKIKELDIKVGISIDGLEINDILRPYKNGKPSTLDTLKGMYILKSYNIPFGITTVVTNKNLPYLEEFVKYLIAFGVKSISFDLLKPKKKEHLTLMPNIEEFNKLLNKLGRYPIYIKNLQKRPKDKYCYLNSGDLLFVNEFGDIYLCPTLEGLSCLGNINDKNKIKLPKVKSKGCYAREFLIKTFKK,not soluble
4,MGSDKIHHHHHHMVHGVPCFVAHRGYPALYPENSLVGIRAAVQAGARYVEIDIQLSRQLTPYLCHDDNLKRLTGRNAYLTRLKDDEIDTLTVSCPDVTCSSGTEPAPIPRLAEFCRYLAQHPQVTTFVEIKSESIARFGLSKTMDAILPVIDVVHTQCVLISFDWELIALIKSHQMYKTGWIIEHWTDEQSAMAARLQPDYLFSSIRCLPEKLDQLWPGPWQWVIYTVDDYATALGYAEAGITLIETDTISTLLAP,not soluble
5,MGSDKIHHHHHHMVIENAMNIQFVLKDFSTFGGVERIQYNLAKKFKNDGHNVSFYILNGDSVALDTSHEFIIHKGSKSGFITFLFEIIKLRNNIYKNRIDVVIAAKEQANIAAFFATIFTKVSTIYTRHSALNVSEQRINERSVLLIYSLLTLSKGKVVTVSHDLKYSLLKSLPWGKDKIHVCPNPVLTESIYLKSLQPITDFKLPLSYICSVGRLTRTKGFDVLIQAYKQCITKELNFPDLVIAGSGEEYASLVKLTQELNVADKVHFLGHIDNPYVLMKNSSGFVLSSRNEGLPTVLIEAIALGTNVVSTDCLTGPREILDGGRIGKLVPVEDVRSLAEAMLTLPLHKLSESEIREMDRYSLEQSAIAYFKLFTKKSH,not soluble
6,MGSDKIHHHHHHMVLMKKLMMKGNEAIAESAIRAGCRLYFAYPITPQSEIAEYMARRLPEVGGVFLQTESEIATVNMVYGAACTGKRVMTSTSSPGFSLMQEGISYIAGAELPCVFVDVVRGGPGLGNIQPSQGDYFQAVKGGGHGDYRLIVLAPSTLQEAVDLTQLAFDLADRYRNPVLILADGMIGQMMEPVELPEMRDLSTLPDHSDWALRGARNREPHRIAAFNIDPVGLEKMNKRLQEKYRLIEASEQRWEEYRVDGAEYLMVGYGTMGRILKSVVDSLREEGIPAGLFRPVTLWPFPKRRLKELAKKVQLIFVVEMSSGQMVEDVQISVEGKVPVHFYGRMGGVVPTPEEILFAFKEVRKWK,not soluble
7,MGSDKIHHHHHHMVMEYELRTPLVKDQILKLKVGDVVYITGEIFTARDEAHARALEWMEEGKELPFSFDKGVVYHCGPLVKKNDEWRVVSAGPTTSARMNPFTPKILEKVECMGIIGKGGMSEEVVEAMRGKAAYFAFTGGAGALAAMSIKKVKGVVWEDLGMPEAVWLLEVERFGPCIVAIDAHGNSLYRR,soluble
8,MGSDKIHHHHHHMVNAAQAVMESSGQFHVEPEGVIRMSVPKAVGHFMIHPHLPEFLERYPKIDIQMLLEDRYVDLIDDGVDLALRITEQPPGGLMGRKLIDIDHLVCATPEYLSKHGTPNHPHDLKQHECIYLGEQASDSKWKFQQGNKSISVAVRGRYAANHTGVRLSAALQHLGIASLPYFVARHALQQGTLVQVLPDWYFKTYYSGGLWLLYPPTRHVQPKLSVLIQYLADKLAAEPTLFKLK,not soluble
9,MGSDKIHHHHHHMVNQGVDISVIAPQSITRHLLKGDPLLAVDSEKKIGNRSYHIYRPKYLTLGNAPRWIQNILEWLRYKVILRVITKHNLKPDAIYGHFWQNAFDIRKYCYKNGTPLFVACGEGDTALEDLVNSLSFAEKKRLSNAVTGVISVSSLNKRKCIEYGLSKAEDIVVLPNSVNSSLFSDINPLNRNSLGVFDDDFLIVFTGGFIHRKGASRLAAAIDKIGDKRIKVIFIGKPVPGDDATPHCNGIVHIGALEHDDIPSYLSAADVFCLPTLNEGCSNAIVEAIACGLPIISSNLPFNDDILDSSNALLVNPESVDDIASAIKQLMDNSDLRQKLAEGSKEKAKSLRIEFRAKKIIEFINRQMQK,not soluble
10,MGSDKIHHHHHHMVSPVVARIIELLPDSCVGFIGKRILNMYLNKYADINVHGMENLKGIDKPIMFIGNHLSNSDGLVLNKVLKDYDVTFVAGVKLKGDAITNLGTYCVKTTEIKPNTADKDGIYRVIDILKSNHNILMFPEGTRSRTGAMIEAKRGPLFIAKLSKAIIVPVGICGSEKLLPINKEGNMSNENFHHAKVEVNIGKPFYFDKRMKEESKKDYEKRALDNAMYKIAELIPENYRGVYSDIKKVL,not soluble
11,MGSDKIHHHHHHMVYPVKDIQSVRDLALLAIRNKVSLEQQVETLGFESETYDYSSLLADLKVLPPLDHPDPTHCLISGTGLTHLGSASARDKMHQQNLSNDSSVTDTMRIFQWGLQKGRPAEGQIGAQPEWFYKGDGSIVVRPGAELPLPPFAEDGGEEPEIAGLYVIGEDLKPYRIGFALGNEYSDHVMERRNYLYLAHSKLRFCSFGPALRTGELPKHLVGTSRLRRDGQIIWEKEFLSGEDNMCHSLANLEYHHFKYQQFLKAGDVHIHYFGTATLSFADGIQAQVNDEFEIEMKEFGHPLKNKLAHMQPELPIGSVITL,not soluble
12,MGSDKIHHHHHHMWCRNLTVRYPDQDRDVLNDLTVSLRQGETTLLIGPSGSGKTTFLHTLAGLMPETIEAEVTGEWRADGTVGMLFQQPDDQFCMQTVGAEIAFSLENRSIPRDEMEERIRTVLKRVGLDLALTTQIAGLSGGMKQRLALACVLALEPDILLLDEPTAQLDPHGRRLMMELIEELHHNPNVTLVLIEHQLEECVTFADRVLVFREGQLRLDGSPLDVFEEKREDLTRHGIMCPLLYPYTLETIPLTIATARFLDGPPVARRPVANETTLDLTDVTIAHGKRMILDQISLTASAGEWIMLVGRNGAGKSTLLETLAKLLPAQSGTIKLFQTPLKKWRDRTFYRQVGFVFQQPEFQFLKQTVADELAISSPSPARSQVADALQHYRLEDVAAQSPLALSLGQKRRLSVATMLLERKAVLLLDEPTFGQDAETTAQILDVLHQAREAGTTLIMVTHDMELVYRYADRVVVIGEKHVQFDGAPDELFRNESLLEHNQLIRPVSVRYQQLEEVKHRAGKQFVARTP,not soluble
13,MGSDKIHHHHHHMWIEQRLWTPEGGWTVTETSPGKASLVLYFAAPGALTPESILADLRVAYGNAPILGCTTGGEILGPEVLDDSIVVSALGFDKASVRMASRDLSDVSQSRETGAALARELAGEDLRAIFILSDGTKVNGDSLVAGCLSAVTSDVVVTGGLAGDGARFQTTAVGCSDAMRPGRVAAVGFYGDSLAIGHGSFGGWDEFGPPRTITRSAANVLYELDGEPALDLYKRYLGEEAQGLPGSALLFPLSIRPSGDDAGAEVVRTIVGIDEEAKSMIFAGDVPTGHLARLMRGNFDNLVDGAGRAAEAAAAIKGPSLGLLVSCIGRKLLMGQRIAEEVEIVSDVLGKEASLMGFYSYGEISPHGFTGKCELHNQTMTITTISER,not soluble
14,MGSDKIHHHHHHMWKHVKQVDPEIYEVLVNELKRQEYGLELIASENFASLAVIETMGSMLTNKYAEGYPKKRYYGGCEWVDRAEERAIERAKRLFGAKFANVQPHSGSQANMAVYLALAQPGDTIMGMSLSHGGHLTHGAPVNFSGKIFKVVPYGVNLETETIDYDEVRRLALEHKPKIIVAGGSAYARIIDFKRFREIADEVGAYLMVDMAHFAGLVAAGIHPNPLEYAHVVTSTTHKTLRGPRGGLILTNDPEIAKAVDKTIFPGIQGGPLMHVIAAKAVCFKEAMTEEFKEYQKQVVKNAKKMAEEFQKRGYRIVSGGTDTHLFLVDLTPKDITGKAAEKALESCGITVNKNTIPNEKRSPFVASGIRIGTPAVTTRGMKEEEMEEIAEMIDLVLSNVIDENGTVKPEVREEVSKKVRELCERFPLYRDKIEGVEI,not soluble
15,MGSDKIHHHHHHMWQFPLFETILIEQGQAKNISYHQQRYEKSLLKFYPKMKLQPFDLAKIIAKHTALFTHREGLIRCRIDYNHHDYVLQCFPYQQKVYRTFKPVFCDHIDYSLKFSDRTLLNNLLKQKEECDEIMIIRQGKVTDCSIGNLIFRQNNQWITPDKPLLEGTQRAKLLEQKKIIAREIFFEDLAQYEEIRLINAMNGL,not soluble
16,MGSDKIHHHHHHMWTPCGRADGNANSPRQSQFALDDLIDIPTDFSLYSTALKKFSQGMERPMYRNFRIVPNIIFGRGSFNQLDDVLKDRRVTADSWMVFVVDDVFTGKPLEGRFPLRGRDLLLWVNVDDEPKTRYIDELVARIRAYSPTAPAGIAGIGGGSAMDIAKAVSLMLNNPGSSADYQGWDLIKNPAVYHVAVPTLAGTGAEISRTTILTGPEKKLGINSDYTLYDQILLDPELLAGVPKNQWFYTGMDCYIHDVESLNGTFINEFSKAYGEKSRDLCREVFLDDSPAKDDKLMMASYFGGMSIAYSQVGACHALSYGLSYVLGIHHGVGCCIAFDQLEEIYPEGVQEFRQMMEKHDIPLPRNLTKDLDSASMEKMVTTALNLVPLWENCLGPDWANIMTRERAMELYKKM,not soluble
17,MGSDKIHHHHHHMYAAHPIKPLKAPKLKTQFLRRVFVGASIRRWNDQACPLEFVELDKQAHKAMIAYLLAKDLKDRGNDLDLDLLIKFFCFEFLERLVLTDIKPPIFYALQQTHSQELASYVVQSLQDEISMYFSLEELKEYLSHRPQILETQILESAHFYASKWEFDIIYHFNPNMYGVKEIKDKIDKQLHNNEHLFEGLFGEKEDLKKLVSMFGQLRFQKRWSQTPRVPQTSVLGHTLCVALMGYLLSFDLKACKSMRINHFLGGLFHDLPEILTRDIITPIKQSVAGLDHCIKEIEKKEMQNKVYSFVSLGVQEDLKYFTENEFKNRYKDKSNKIIFTKDAEELFTLYNSDEYLGVCGELLKVCDHLSAFLEAQISLSHGISSNDLIKGAQNLLELRSQTELLDLDLGKLFRDFK,not soluble
18,MGSDKIHHHHHHMYANASSENGAVNVSDDGPPLRIIHCFRSPVGGVFRHVRDLIEEHVRQGHKVGIVCDSSTGGAHEERLFAQITPMLELGLTRLPIRRSISPGDLLALWKSYKHIKSLRPDILHGHSAKGGALARLIGSLLRANRYRVARLYSPHGGSLHYARNSLKGQLFLRLERFQEHFTDALCFVCNFEQETYETKVGKPRTRTAMIYNGVQESEFETVPPRDGAARFLYIGMLRDLKGPDVFIRAFAKMERSIGQPMSGVIVGDGPDRDKYAAMIATAGLSRRISMHAAMPARQAFELATTVVVPSRAEAMPYIVLEALAAGKTVIASHVGGIPEVLGEDSEALVPAGDADALARTMVKDAADADWAQRVMPHPDSFKAKFSTPVMADEMMKLYRDLLTT,not soluble

# Reference: the DeepSol protein solubility set
